From article PMC5847621 (2018) come the findings set out here.

The test concerns the target T1, VSV Gth, soluble form of the ectodomain of VSV glycoprotein G (residues 1-422) (Vesicular stomatitis virus (Mudd-Summer …, UniProt P0C2X0 17-438)).
T1 chain: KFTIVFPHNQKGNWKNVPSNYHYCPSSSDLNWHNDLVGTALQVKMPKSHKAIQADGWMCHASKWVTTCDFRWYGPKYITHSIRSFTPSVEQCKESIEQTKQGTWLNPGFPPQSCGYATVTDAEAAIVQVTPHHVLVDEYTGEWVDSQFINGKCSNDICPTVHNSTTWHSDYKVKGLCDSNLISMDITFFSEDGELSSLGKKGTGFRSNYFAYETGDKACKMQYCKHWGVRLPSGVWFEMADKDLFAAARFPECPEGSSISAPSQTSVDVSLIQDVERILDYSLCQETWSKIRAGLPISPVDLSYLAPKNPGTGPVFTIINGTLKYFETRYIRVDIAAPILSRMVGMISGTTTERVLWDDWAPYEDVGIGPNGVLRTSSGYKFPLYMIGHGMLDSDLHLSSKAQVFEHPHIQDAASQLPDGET
As to the kind of experiment: ITC.

B1: LDL-R CR3 domain, isolated (GST cleaved off) (domain or fragment)
chain: not shown
What is called Kd is the concentration at which binding is half-saturated. Molecule B1 showed a Kd of 3.75 µM.
